Measurements from patent US20260022175A1 (Chugai, published 2026).
Residue numbers refer to the chain shown, from its start. In names and notes the source's numbering stands.

B1: 04H1389-Km473/04L1615-k0MT//04H1389-Hm482/04L1615-k0MT (antibody)
heavy 1: EVQLVESGGGLVKPGGSLRLSCAASGFTFSSKTMNWVRQAPGKGLEWVSSISTQSHYIYYAESVKGRFTISRDNAKNSLYLQMNSLRAEDTAVYYCARYGKREDMLWVFDYWGQGTLVTVSSASTKGPSVFPLAPSSKSTSGGTAALGCLVKDYFPEPVTVSWNSGALTSGVHTFPAVLQSSGLYSLSSVVTVPSSSLGTQTYICNVNHKPSNTKVDKRVEPKSCDKTHTCPPCPAPEFQWGPMVFLFPPKPKDVLMISRTPEVTCVVVDVSDEEPEVKFNWYVDGVEVHNAKTKPREEQYNATYRVVSVLPVLHQDWLNGKEYKCKVSNDALPAPIEKTISKAKGQPREPQVCTLPPSREEMTKNQVSLWCLVKGFYPSDIAVEWESNGQPENNYKTTPPVLDSDGSFFLYSKLTVDKSRWQQGNVFSCSVMHEALHAHTTRKELSLSP
heavy 2: EVQLVESGGGLVKPGGSLRLSCAASGFTFSSKTMNWVRQAPGKGLEWVSSISTQSHYIYYAESVKGRFTISRDNAKNSLYLQMNSLRAEDTAVYYCARYGKREDMLWVFDYWGQGTLVTVSSASTKGPSVFPLAPSSKSTSGGTAALGCLVKDYFPEPVTVSWNSGALTSGVHTFPAVLQSSGLYSLSSVVTVPSSSLGTQTYICNVNHKPSNTKVDKRVEPKSCDKTHTCPPCPAPELLAGPSVFLFPPKPKDVLMISRTPEVTCVVVDVSHEEPEVKFNWYVDGVEVHNAKTKPREEQYNATYRVVSVLPVLHQDWLNGKEYKCKVSNDALPKPDEETISKAKGQPREPQVYTLPPSRCEMTKNQVSLSCAVKGFYPSDIAVEWESNGQPENNYKTTPPVLDSDGSFFLVSKLTVDKSRWQQGNVFSCSVMHEALHAHTTRKELSLSP
light: DIVMTQSPLSLPVTPGEPASISCQGPSTGVGDYNYVHWYQQKPGQAPRLLIYFTSKKPSGVPDRFSGSGSGTDFTLKISRVEAEDVGVYYCQTYAAPLGPMFGQGTKLEIKRTVAAPSVFIFPPSDEQLKSGTASVVCLLNNFYPREAKVQWKVDNALQSGNSQESVTEQDSKDSTYSLSSTLTLSKADYEKHKVYACEVTHQGLSSPVTKSFNRGEC
notes: Heterodimerized antibody with N434A/Y436T/Q438R/S440E
B2: 04H1654-KT481/04L1612-lam1//04H1656-HT498/04L1612-lam1 (antibody)
heavy 1: B1 heavy 1 with E1Q, L11V, K13Q, E62R, K65R, I337E, C354Y, E361K, W371T
heavy 2: QVQLVESGGGVVQPGGSLRLSCAASGFTFSSKTMNWVRQAPGKGLEWVSSISTQSHYIYYAESVRGRFTISRDNAKNSLYLQMNSLRAEDTAVYYCARYGAREDMLWVFDYWGQGTLVTVSSASTKGPSVFPLAPSSKSTSGGTAALGCLVKDYFPEPVTVSWNSGALTSGVHTFPAVLQSSGLYSLSSVVTVPSSSLGTQTYICNVNHKPSNTKVDKRVEPKSCDKTHTCPPCPAPELLAGPSVFLFPPKPKDVLMISRTPEVTCVVVDVSHEEPEVKFNWYVDGVEVHNAKTKPREEQYNATYRVVSVLPVLHQDWLNGKEYKCKVSNDALPAPEEETISKAKGQPREPQVYTLPPSREEMTKNQVSLTCLVKGFYPSDIAVEWESNGQPENNYKTTPPVLDSDGSFFLYSKLTVDKSRWQQGNVFSCSVMHEALHAHTTREELSLSP
light: QSALTQPPSASGSPGQSVTISCEGPSTGVGDYTYVHWYQQHPGKAPKLMIYFTSKKPSGVPDRFSGSKSGNTASLTVSGLQAEDEADYYCQTYAAPLGPMFGGGTKLTVLGQPKAAPSVTLFPPSSEELQANKATLVCLISDFYPGAVTVAWKADSSPVKAGVETTTPSKQSNNKYAASSYLSLTPEQWKSHRSYSCQVTHEGSTVEKTVAPTECS
notes: as for B1
B3: 04H1389-Km461/04L1615-k0MT//04H1389-Hm443/04L1615-k0MT (antibody, human IgG1, kappa)
heavy 1: B1 heavy 1 with I337E, A439N, T441Y, R443Q, E445S
heavy 2: B1 heavy 2 with K335A, D337E, A439N, T441Y, R443Q, E445S
light: B1 light
notes: Heterodimerized antibody

Key:
human FcRn [1] = target: T1, human FcRn (human, UniProt P55899 24-290; P61769 21-119); assay: SPR Biacore T200, Ab captured via Fab-kappa, pH 6.0, steady state
T1 construct: Prepared by the method of WO 2010/107110; also called hFcRn

human FcRn [2] = target: T1, human FcRn; assay: SPR; KD of 04H1389-G1m/04L1615-k0MT divided by KD of variant
[3] = target: T2, human FcγRIa extracellular domain with C-terminal His-tag (human, UniProt P12314 16-292); assay: as above
T2 construct: extracellular domain; also called hFcγR Ia; hFcγRIa

[4] = target: T3, human FcγRIIa R allotype extracellular domain with C-terminal His-tag (human, UniProt P12318 34-217); assay: as above
T3 construct: extracellular domain; also called hFcγR IIa R
T3 sequence (looked up): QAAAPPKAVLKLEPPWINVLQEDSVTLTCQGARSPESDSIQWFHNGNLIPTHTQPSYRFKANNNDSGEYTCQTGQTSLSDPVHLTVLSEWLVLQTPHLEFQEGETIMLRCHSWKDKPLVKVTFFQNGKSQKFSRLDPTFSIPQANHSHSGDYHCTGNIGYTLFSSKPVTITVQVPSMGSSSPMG

[5] = target: T4, human FcγRIIa H allotype extracellular domain with C-terminal His-tag (human, UniProt P12318 34-217); assay: as above
T4 construct: extracellular domain; also called hFcγR IIa H
T4 sequence (looked up): T3 sequence (looked up) with R134H

[6] = target: T5, human FcγRIIIa V allotype extracellular domain with C-terminal His-tag (human, UniProt P08637 17-208); assay: as above
T5 construct: extracellular domain; also called hFcγR IIIa V

[7] = target: T6, human FcγRIIb extracellular domain with C-terminal His-tag (human, UniProt P31994 43-217); assay: SPR; binding amount divided by that of 04H1389-G1m/04L1615-k0MT
T6 construct: extracellular domain; also called hFcγR IIb
T6 sequence (looked up): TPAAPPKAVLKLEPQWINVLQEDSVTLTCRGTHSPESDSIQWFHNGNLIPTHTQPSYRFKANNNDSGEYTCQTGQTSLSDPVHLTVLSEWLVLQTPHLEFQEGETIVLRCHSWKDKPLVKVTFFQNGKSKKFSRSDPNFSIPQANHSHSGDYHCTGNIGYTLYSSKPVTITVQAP

[8] = target: T6, human FcγRIIb extracellular domain with …; assay: SPR; FcγRIIb bound amount per unit captured Ab
[9] = target: T2, human FcγRIa extracellular domain with …; assay: SPR Biacore T200, Ab captured via Fab-kappa, pH 7.4, 25C;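 also: each FcγR flowed as analyte over the captured antibodies, KD derived by 1:1 Langmuir or steady-state affinity fitting depending on the receptor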
Description: (§1) The interaction between the generated antibodies and human FcγRs was analyzed using Biacore T200. 50 mM Na-Phosphate, 150 mM NaCl, 0.05% Tween20 (pH 7.4) was used as the running buffer, and the assay was performed at 25° C. For the sensor chip, Series S SA (GE Healthcare) chips onto which CaptureSelect Human Fab-kappa Kinetics Biotin Conjugate (Thermo Fisher Scientific) was immobilized were used. The antibodies of interest were captured onto these chips and each FcγR diluted in the running buffer was allowed to interact with them. Chips were regenerated with 10 mM Glycine-HCl (pH 1.5) and 25 mM NaOH, and assay was performed by repeatedly capturing antibodies. The dissociation constants KD (mol/L) for FcγRs of each antibody were calculated using Biacore T200 Evaluation Software 2.0, and using the 1:1 Langmuir binding model for FcγRIa and FcγRIIIa and the steady state affinity model for FcγRIIa. For FcγRIIb, the binding amount of FcγRIIb per unit amount of antibody was calculated by correcting the binding amount of FcγRIIb obtained from the sensorgram obtained by the measurement with the amount of antibody captured onto the chip surface.

[10] = target: T3, human FcγRIIa R allotype extracellular …; assay: as above
Description: as §1

[11] = target: T4, human FcγRIIa H allotype extracellular …; assay: as above
Description: as §1

[12] = target: T7, human FcγRIIIa F allotype extracellular domain with C-terminal His-tag (human, UniProt P08637 17-208); assay: as above
T7 construct: extracellular domain; also called hFcγR IIIa F
Description: as §1

[13] = target: T5, human FcγRIIIa V allotype extracellular …; assay: as above
Description: as §1

[14] = target: T6, human FcγRIIb extracellular domain with …; assay: SPR; FcγRIIb at 1000 nM, bound amount per unit captured Ab
Description: (§2) The interaction between the generated antibodies and human FcγRs was analyzed by the following method using Biacore T200. 50 mM Na-Phosphate, 150 mM NaCl, 0.05% Tween20 (pH 7.4) was used as the running buffer, and the assay was performed at 25° C. For the sensor chips, Series S SA (GE Healthcare) chips onto which CaptureSelect Human Fab-lambda Kinetics Biotin Conjugate (Thermo Fisher Scientific) was immobilized were used. The antibodies of interest were captured onto these chips and each FcγR diluted in the running buffer was allowed to interact with them. Chips were regenerated with 10 mM Glycine-HCl (pH 1.5) and 25 mM NaOH, and assay was performed by repeatedly capturing antibodies. The dissociation constants KD (mol/L) for FcγRs of each antibody were calculated using Biacore T200 Evaluation Software 2.0, using the 1:1 Langmuir binding model for FcγRIa and FcγRIIIa and the steady state affinity model for FcγRIIa. For FcγRIIb, the binding amount of FcγRIIb per unit amount of antibody was calculated by correcting the binding amount of FcγRIIb obtained from the sensorgram obtained by the measurement with the amount of antibody captured onto the chip surface.

[15] = target: T6, human FcγRIIb extracellular domain with …; assay: SPR; binding amount divided by that of 04H1637-G1m/04L1610-lam1
[16] = target: T2, human FcγRIa extracellular domain with …; assay: SPR Biacore T200, Ab captured via Fab-lambda, pH 7.4, 25C;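 also: antibodies captured on a streptavidin chip carrying biotinylated anti-Fab-lambda, with each FcγR injected as analyte in phosphate buffer. KD fitted by 1:1 Langmuir or steady-state model depending on receptor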
Description: as §2

[17] = target: T3, human FcγRIIa R allotype extracellular …; assay: as above
Description: as §2

[18] = target: T4, human FcγRIIa H allotype extracellular …; assay: as above
Description: as §2

[19] = target: T7, human FcγRIIIa F allotype extracellular …; assay: as above
Description: as §2

[20] = target: T5, human FcγRIIIa V allotype extracellular …; assay: as above
Description: as §2

human FcRn [21] = target: T1, human FcRn; assay: SPR; KD of 04H1637-G1m/04L1610-lam1 divided by KD of variant;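 also: biacore T200 SPR at 25 °C, antibodies captured on anti-Fab-lambda SA chip with receptor as analyte, running buffer pH 7.4 for FcγRs and pH 6.0 for FcRn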
Description: as §2
(§3) The interaction between the generated antibodies and human FcRn was analyzed by the following method using Biacore T200. 50 mM Na-Phosphate, 150 mM NaCl, 0.05% Tween20 (pH 6.0) was used as the running buffer, and the assay was performed at 25° C. For the sensor chip, Series S SA (GE Healthcare) chips onto which CaptureSelect Human Fab-lambda Kinetics Biotin Conjugate (Thermo Fisher Scientific) was immobilized were used. The antibodies of interest were captured onto these chips and FcRn diluted in the running buffer was allowed to interact with them. Chips were regenerated with 10 mM Glycine-HCl (pH 1.5) and 25 mM NaOH, and assay was performed by repeatedly capturing antibodies. The dissociation constant for FcRn of each antibody was calculated using the steady state model, using Biacore T200 Evaluation Software 2.0.

[22] = target: T2, human FcγRIa extracellular domain with …; assay: as above
Description: as §2, §3

[23] = target: T3, human FcγRIIa R allotype extracellular …; assay: as above
Description: as §2, §3

[24] = target: T4, human FcγRIIa H allotype extracellular …; assay: as above
Description: as §2, §3

[25] = target: T7, human FcγRIIIa F allotype extracellular …; assay: as above
Description: as §2, §3

[26] = target: T5, human FcγRIIIa V allotype extracellular …; assay: as above
Description: as §2, §3

human FcRn [27] = target: T1, human FcRn; assay: SPR Biacore T200, Ab captured via Fab-lambda, pH 6.0, 25C, steady state
Description: as §3

T5 sequence (P08637 17-208 F176V): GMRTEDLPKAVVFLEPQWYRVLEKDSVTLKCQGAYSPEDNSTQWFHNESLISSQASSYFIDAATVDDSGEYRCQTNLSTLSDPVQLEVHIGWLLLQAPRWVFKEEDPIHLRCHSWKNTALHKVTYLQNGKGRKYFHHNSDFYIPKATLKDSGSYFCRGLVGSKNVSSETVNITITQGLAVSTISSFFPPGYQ
T2 sequence (P12314 16-292): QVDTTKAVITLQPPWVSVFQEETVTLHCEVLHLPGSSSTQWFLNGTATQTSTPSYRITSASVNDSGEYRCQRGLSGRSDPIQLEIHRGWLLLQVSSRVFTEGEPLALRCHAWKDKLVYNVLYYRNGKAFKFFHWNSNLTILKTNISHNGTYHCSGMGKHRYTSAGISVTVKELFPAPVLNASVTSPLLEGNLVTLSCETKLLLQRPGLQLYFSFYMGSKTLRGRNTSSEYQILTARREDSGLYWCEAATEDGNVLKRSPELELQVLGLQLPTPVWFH
T7 sequence (P08637 17-208): as the sequence (P08637 17-208 F176V) above, with V160F counted along it
T1 sequence (P55899 24-290 limits assumed, chain 1 of 2): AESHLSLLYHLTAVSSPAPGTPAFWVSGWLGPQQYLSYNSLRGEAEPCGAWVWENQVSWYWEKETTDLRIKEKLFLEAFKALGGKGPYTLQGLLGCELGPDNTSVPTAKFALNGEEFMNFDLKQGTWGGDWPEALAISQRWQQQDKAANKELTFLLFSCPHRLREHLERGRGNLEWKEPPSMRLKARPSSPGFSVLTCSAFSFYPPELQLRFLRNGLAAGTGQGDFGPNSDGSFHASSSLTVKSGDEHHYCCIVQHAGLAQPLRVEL
T1 sequence (P61769 21-119 limits assumed, chain 2 of 2): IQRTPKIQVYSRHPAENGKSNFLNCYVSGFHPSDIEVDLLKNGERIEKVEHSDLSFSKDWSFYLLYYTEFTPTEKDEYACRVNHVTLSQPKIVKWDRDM

Binder | Kd (human FcRn [1]) [nM] | Relative value to KD between G1m and hFcRn (human FcRn [2]) | Relative value to KD between G1m and hFcγRs [3] | Relative value to KD between G1m and hFcγRs [4] | Relative value to KD between G1m and hFcγRs [5] | Relative value to KD between G1m and hFcγRs [6] | Relative binding amount [7] | Binding amount [8] | Kd [9] [nM] | Kd [10] [nM] | Kd [11] [nM] | Kd [12] [nM] | Kd [13] [nM] | also measured
B1 | 460 | 2.8 | 0.7 | 8.2 | 12.3 | 705 | 2.1 | 0.024 | 0.062 | 180 | 87 | 2.6 | 1.3 | –
B2 | – | – | – | – | – | – | – | – | – | – | – | – | – | Binding amount [14]: 0.022; Relative binding amount [15]: 2.8; Kd [16]: 0.043 nM; Kd [17]: 270 nM; Kd [18]: 230 nM; Kd [19]: 2.9 nM; Kd [20]: 1.7 nM; Relative value to KD between G1m and hFcRn (human FcRn [21]): 2.2; Relative value to KD between G1m and hFcγRs [22]: 1.1; Relative value to KD between G1m and hFcγRs [23]: 7.6; Relative value to KD between G1m and hFcγRs [24]: 6.4; Relative value to KD between G1m and hFcγRs [25]: 479; Relative value to KD between G1m and hFcγRs [26]: 145; Kd (human FcRn [27]): 600 nM
B3 | 1700 | 0.7 | 1.8 | 5.8 | 5.7 | 1620 | 2.1 | 0.024 | 0.025 | 260 | 190 | 1.2 | 0.56 | –
